Literature values in patent US20020188108.

Molecular target: T1, IF3-His6 (translation initiation factor 3) (Escherichia coli) (UniProt P0A707)
T1 sequence: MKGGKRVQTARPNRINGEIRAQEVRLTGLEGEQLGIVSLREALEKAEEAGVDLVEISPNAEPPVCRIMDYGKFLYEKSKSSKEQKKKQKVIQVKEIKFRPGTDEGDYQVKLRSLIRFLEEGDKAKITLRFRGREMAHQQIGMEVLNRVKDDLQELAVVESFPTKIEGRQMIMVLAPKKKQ
Settings: CITED Tapprich et al. 1989

## 16S rRNA G791A in 30S subunit
  binding signal (fold reduction): 10
